As usually defined, the Kd is the concentration at which binding is half-saturated. A low value points to a tighter complex.

Experimental findings from paper PMC10843048 are described below.

For experiment [1], the target named is His+Ala+TIMP2Q186 (human). Description: SPR.
For a further experiment, the target named is His+Ala+TIMP2 (human) (UniProt P16035). In words: SPR. For orientation: Surface plasmon resonance follows binding to a sensor surface in real time, without labels.
Sequence of UniProt P16035 (P16035 26-220): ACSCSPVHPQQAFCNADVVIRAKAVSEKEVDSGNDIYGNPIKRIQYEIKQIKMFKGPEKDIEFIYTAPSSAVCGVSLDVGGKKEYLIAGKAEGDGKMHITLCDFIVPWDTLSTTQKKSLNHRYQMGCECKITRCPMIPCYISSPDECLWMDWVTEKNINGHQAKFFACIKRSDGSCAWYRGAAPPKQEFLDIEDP

Consider “Recombinant C-domain of MMP2 (C-MMP2) (domain or fragment)”, for which the results for the Kd (in experiment [1]; with His+Ala+TIMP2 (human)) were 1900 nM and 0.76 nM, respectively.
